Columns and labels:
db/db mice [1] = assay: Effect on blood glucose in vivo, subchronic study in db/db mice; details: F1 0.5 mg/kg, G1 30 nmol/kg or both
Experimental: This subchronic in vivo dosing study investigates the effect of GLP-1 and FGF21 compounds on blood glucose. The study was performed in db/db mice (as described in Example 5).
48 db/db mice, male, 11-12 weeks of age at study start.
Dosed subcutaneously 2 × daily with either (i) 0.5 mg/kg human FGF21 (compound F1; n=12); (ii) 30 nmol/kg of GLP-1 compound G1 (n=12); (iii) a combination of 0.5 mg/kg of compound F1 and 30 nmol/kg of compound G1 (n=12); or (iv) vehicle (sterile PBS buffer, n=12).
All groups were dosed for 21 days.
Blood samples of 10 μl were taken from the tip of the tail for blood glucose measurements once weekly.

[2] = system: rat insulinoma beta-cells (INS-1); assay: Insulin accumulated in the medium of INS-1 cells during 48 hour incubation with FFA; assay type: cell-based; details: for Insulin accumulated in the medium: 48 hours, FGF21 compound = F1 50 nM, GLP-1 compound = G1 50 nM, mean +/- SEM
Experimental: This ex vivo example investigates the influence of FGF21 and GLP-1 compounds on FFA (free fatty acid) induced apoptosis of rat insulinoma beta-cells (INS-1).
Compound F1 (Prospec, cat. no. CYT-474) was used as the FGF21 compound, and compound G1 was used as the GLP-1 compound.
INS-1 cells were seeded in 96-well plates (50000 cells/well) and incubated overnight in cell medium (RPMI 1640 medium (Gibco, cat. no. 61870-010), supplemented with 10% FCS (Gibco, cat. no. 10085-140), 1% Pen/Strep (Gibco, cat. no. 15140-114) and 0.5 ml beta-mercaptoethanol (Gibco, cat. no. 31350-010 (50 mM)). The FGF21 compound (50 nM) and the GLP-1 compound (50 nM) were added to the cells 1 hour before the cells were to be exposed to FFA. The FFA's were prepared as follows: Stock solutions of palmitic acid (Sigma P5585) and oleic acid (Sigma 01383) of 1M in DMSO were mixed 1:2 and heated to 60 degree Celsius. The FFA mix was then diluted 10 times in 0.1M NaOH. This mixture was then further diluted in cell medium to yield a FFA concentration of 1 mM. The FFAs were then added to the cells to a final concentration of 0.35 mM. The cells were incubated for 48 hours and then the following three assays were performed: 1) Cell viability was assessed using the CellTiter 96® Non-radioactive Cell Proliferation Assay (MTT) from Promega, performed according to the manufacturer's instruction (absorbance at 550 nm, A550); 2) Apoptosis was assessed using the Apo-ONE® Homogeneous Caspase-3/7 Assay from Promega, performed according to the manufacturer's instruction (fluorescence); and 3) Insulin accumulated in the medium during the 48 hour incubation with FFA was analysed (as described in Example 3; ng/ml insulin).
The results of 1), 2) and 3) are shown in Tables 4, 5, and 6 below, respectively, all figures being mean+/−standard error of mean (SEM). […]

db/db mice [3] = assay: Effect on blood glucose in vivo, acute study in db/db mice; details: compound F1 0.125 mg/kg s.c. 1 × daily for 3 days and/or compound G4 1 nmol/kg s.c. one hour after last FGF21 dose, 0-48 hours post GLP-1 dose
Experimental: This acute in vivo study investigates the effect of FGF21 and GLP-1 compounds on blood glucose levels of db/db mice.
The db/db mouse is a hyperglycaemic, hyperinsulinaemic, hyperphagic and obese model of type 2 diabetes.
23 db/db mice (Male, C57BLKS db/db, from Taconic, Denmark, 15-16 weeks of age).
Dosed subcutaneously 1 × daily with 0.125 mg/kg human FGF21 (n=11) (compound F1) or vehicle (n=12) for 3 days. Vehicle was sterile PBS-buffer (DPBS, Gibco, cat. no. 14190).
Both groups of animals were then dosed with either vehicle or GLP-1 compound G4 at 1 nmol/kg (n=5-6). The G4 compound is a GLP-1 analogue which has an extended half-life due to its derivatisation with an albumin binder. The GLP-1 or vehicle dose was given subcutaneously one hour after the last FGF21 or vehicle dose.
Blood samples of 10 μl were taken from the tip of the tail for the measurement of blood glucose from 0-48 hours post dose of the GLP-1 compound.
Results were analysed using the area under the glucose curve (AUC) for the vehicle group, the GLP-1 group, the FGF21 group and the combined group.
The expected AUC was calculated using the following formula: […]
AUCvehicle−((AUCvehicle−AUCFGF212)+(AUCvehicle−AUCGLP-1))

B1: Met-FGF21_human (protein, listed as Homo sapiens)
chain: HPIPDSSPLLQFGGQVRQRYLYTDDAQQTEAHLEIREDGTVGGAADQSPESLLQLKALKPGVIQILGVKTSRFLCQRPDGALYGSLHFDPEACSFRELLLEDGYNVYQSEAHGLPLHLPGNKSPHRDPAPRGPARFLPLPGLPPALPEPPGILAPQPPDVGSSDPLSMVGPSQGRSPSYAS
modifications: N-terminal Met; mat_peptide (1)..(181); DISULFID (75)..(93)
Molecule B1 has a Blood glucose (db/db mice [1]; Day 0, s.c. 2 × daily) of 19.9 ± 1.2 mmol/L, a Blood glucose (db/db mice [1]; Day 7, s.c. 2 × daily) of 17.2 ± 1.3 mmol/L and a Blood glucose (db/db mice [1]; Day 14, s.c. 2 × daily) of 16.2 ± 1.8 mmol/L. For the same molecule, the Blood glucose (db/db mice [1]; Day 21, s.c. 2 × daily) was 19.2 ± 3.0 mmol/L, the “Insulin accumulated in the medium” value ([2]; FFA 0.00 mM) was 1011 ± 112 ng/mL and the “Insulin accumulated in the medium” value ([2]; FFA 0.35 mM) was 569 ± 14 ng/mL. The “stimulation of insulin release” value ([2]; absence of free fatty acids, F1 50 nM) was “does not stimulate insulin release” and the “Glucose lowering capacity (AUC), blood glucose AUC0-48 h, mean” value (db/db mice [3]) was 389.8 mM·min.
